Values of other authors, collected in publication PMC3022782.

Target: β sliding clamp rim (Escherichia coli) (UniProt P0A988)
Chain of UniProt P0A988 (P0A988 whole entry): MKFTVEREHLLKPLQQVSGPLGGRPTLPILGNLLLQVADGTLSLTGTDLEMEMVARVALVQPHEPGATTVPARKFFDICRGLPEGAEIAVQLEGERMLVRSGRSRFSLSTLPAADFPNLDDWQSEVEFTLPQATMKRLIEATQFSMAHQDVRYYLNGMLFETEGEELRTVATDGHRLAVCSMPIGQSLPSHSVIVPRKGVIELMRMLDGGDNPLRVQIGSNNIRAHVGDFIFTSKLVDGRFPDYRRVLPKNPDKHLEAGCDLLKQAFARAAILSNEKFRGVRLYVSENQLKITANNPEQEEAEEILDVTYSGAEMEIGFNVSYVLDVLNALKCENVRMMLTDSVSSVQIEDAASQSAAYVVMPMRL

Pol IV (from UniProt Q47155)
Kd: 1 µM
